Experimental data from patent publication US20220064648, “NOVEL X-[…] FOR THE USE IN DETECTION OF SNAP25” (Galderma Holding S.A., published 2022).

B1: PEP 3.01 (ssDNA)
DNA: TTTTTAACACGACACCACTGTGGTTCTCACAGCTATGTGTTGTGGGCCCATG
modifications: W indole, X amine, Y phenol modified dU [19Y,24W,25X,27X,34Y,36W,38W,40W]
B2: PEP 3.02 (ssDNA)
DNA: TTTTTAACACGACAGCACTGTGGTTCGCGAACCTCAAGCTCGTCGTGCCATG
modifications: W indole, X amine, Y phenol modified dU [19Y,24W,25X,34Y,40W,43X,46Y]
B3: PEP 3.03 (ssDNA)
DNA: TTTTTAACACGACAATGGTTCGGGGGGCGAACGTCACTGTGGTCGTGCCATG
modifications: W indole, X amine, Y phenol modified dU [16W,19W,20Y,34Y,38W,40W,43X,46Y]
B4: PEP 3.04 (ssDNA)
DNA: TTTTTAAGCCCACGGCACTGTGCTCAGCACAGCTCGGGGTGGTGGGCCCATG
modifications: W indole, X amine, Y phenol modified dU [19Y,24W,34Y,40W]
B5: PEP 3.05 (ssDNA)
DNA: TTTTTAACACGACGACACTGTGTTGGGCGAACTCCGCTGGGGTGGGCCCATG
modifications: W indole, X amine, Y phenol modified dU [19Y,23W,24W,38W]
B6: PEP 3.06 (ssDNA)
DNA: TTTTTAACACGACCGCACTGTGATAGGCGAACGGTGTGGAGGTCGTGCCATG
modifications: W indole, X amine, Y phenol modified dU [19Y,24W,35Y,43X,46Y]
B7: PEP 3.07 (ssDNA)
DNA: TTTTTAAGCCCACGACACTGTGGCCAACACAGTACATGCATGTGGGCCCATG
modifications: W indole, X amine, Y phenol modified dU [19Y]
B8: PEP 3.08 (ssDNA)
DNA: TTTTTAACACGACGTCACTGTGGTTCTCGAACGCCGCGCTTGTCGTGCCATG
modifications: W indole, X amine, Y phenol modified dU [15Y,19Y,24W,25X,27X,40W,43X,46Y]
B9: PEP 3.10 (ssDNA)
DNA: TTTTTAACACGACAGCACTGTGCACAGCACAGCTCAAGGGTGTGGGCCCATG
modifications: W indole, X amine, Y phenol modified dU [19Y,34Y]
B10: PEP 3.11 (ssDNA)
DNA: TTTTTAAGCCCACTGTCGTTCGGCGGGCGAACGACAGCATGGTCGTGCCATG
modifications: W indole, X amine, Y phenol modified dU [14X,16W,19W,20Y,40W,43X,46Y]
B11: PEP 3.12 (ssDNA)
DNA: TTTTTAACACGACTATCCTGTGAGCAACACAGGGCGGCACTGTGGGCCCATG
modifications: W indole, X amine, Y phenol modified dU [14 (amine dU), 16 (indole dU), 19 (phenol dU)]
B12: PEP 3.13 (ssDNA)
DNA: TTTTTAACACGACATCACTGTGCACAGCGAACTGCGTTGGCGTCGTGCCATG
modifications: W indole, X amine, Y phenol modified dU [15, 19, 46 (phenol dU), 38 (indole dU), 43 (amine dU)]
B13: PEP 3.14 (ssDNA)
DNA: TTTTTAACACGACACCACTGTGCCCACCACAGTTCACTGAAGTGGGCCCATG
modifications: W indole, X amine, Y phenol modified dU [19, 34 (phenol dU), 38 (indole dU)]
B14: PEP 3.15 (ssDNA)
DNA: TTTTTAACACGACTGCACTGTGAATCTCGAACGCATCGGGAGTCGTGCCATG
modifications: W indole, X amine, Y phenol modified dU [14, 25, 27, 43 (amine dU), 19, 46 (phenol dU), 36 (indole dU)]
B15: PEP 3.16 (ssDNA)
DNA: TTTTTAAGCCCACATCACTGTGCGAGCCACAGATCAGGCAGGTGGGCCCATG
modifications: W indole, X amine, Y phenol modified dU [15, 19, 34 (phenol dU)]
B16: PEP 3.17 (ssDNA)
DNA: TTTTTAAGCCCACTAGAGTTCGGCCATCACAGTCCAACACTGTGGGCCCATG
modifications: W indole, X amine, Y phenol modified dU [14, 27 (amine dU), 19 (indole dU), 20 (phenol dU)]
B17: PEP 3.18 (ssDNA)
DNA: TTTTTAACACGACACGGGTTCGCACATCACAGAGATACACTGTCGTGCCATG
modifications: W indole, X amine, Y phenol modified dU [19, 36 (indole dU), 20, 46 (phenol dU), 27, 43 (amine dU)]
B18: PEP 3.19 (ssDNA)
DNA: TTTTTAAGCCCACGCCACTGTGACCATCGAACCACACGGCCGTCGTGCCATG
modifications: W indole, X amine, Y phenol modified dU [19, 46 (phenol dU), 27, 43 (amine dU)]
B19: PEP 3.20 (ssDNA)
DNA: TTTTTAAGCCCACAGTTCTGTGTTCATCACAGAGCAACACTGTGGGCCCATG
modifications: W indole, X amine, Y phenol modified dU [16, 17, 23, 24 (indole dU), 19 (phenol dU), 27 (amine dU)]
B20: PEP 3.21 (ssDNA)
DNA: TTTTTAAGCCCACTCCGGTTCGTCCATCACAGCCCACTGTGGTCGTGCCATG
modifications: W indole, X amine, Y phenol modified dU [14, 27, 43 (amine dU), 19, 23, 38, 40 (indole dU), 20, 46 (phenol dU)]

Molecular target: T1, SNAP25 Peptide 3 (PEP3; only a fragment of it is a SNAP25 subsequence) (Homo sapiens, UniProt P60880 SEQ:1-33)
T1 chain: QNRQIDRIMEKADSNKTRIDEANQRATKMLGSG
Experiment: ELONA
Text: The data in Table 2 was collected by running direct ELISA assays on the 96 X-aptamers, elucidating their ability to bind SNAP25, SNAP25 fragments (PEP1, PEP2, PEP3, and PEP4), and a negative control. The X-aptamers were biotinylated and immobilized onto streptavidin-coated plates and were utilized as detection molecules. Higher numbers represent strong binding. The negative control peptide is a random peptide to measure the amount of binding that occurs to a random amino acid sequence.

Binder | binding signal [ELISA signal]
B1 | 503
B2 | 406
B3 | 338
B4 | 276
B5 | 272
B6 | 230
B7 | 219
B8 | 207
B9 | 139
B10 | 137
B11 | 118
B12 | 115
B13 | 114
B14 | 114
B15 | 111
B16 | 110
B17 | 105
B18 | 102
B19 | 97
B20 | 96
